Assay [1] has as its target T1, wild type human CD47 (Acro Biosystems, cat. no. CD7-H5227) (human, UniProt Q08722 19-139).
T1 construct: Bought protein used as SPR analyte; also called Human CD47 wt; wild-type CD47
The assay can be described thus: SPR, IgG captured, CD47 in flow; exp 2.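 Also: IgG from HEK293 cell supernatants tested by SPR on a BIAcore T200, C33G mutein prevents IgV homodimers for monovalent affinity, KD derived from association and dissociation rates.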

Assay [2] has as its target T2, Human CD47-C33G (human, UniProt Q08722 19-135).
T2 construct: also called CD47 mutein with C33G mutation
The assay can be described thus: SPR, IgG captured, CD47 in flow; exp 2. (In general: In SPR one partner is held on a chip, and binding of the other changes the refractive index at the surface.)

The target of assay [3] is T3, human CD47 on cells (SHP-77 tumor cells, human red blood cells, CCRF-CEM cells, human CD47 CHO-K1 stable cell … (human, UniProt Q08722 19-323)).
T3 construct: whole, on cells; also called RBC
The assay can be described thus: flow cytometry on SHP-77 cells.

Assay [4] addresses T2, Human CD47-C33G. The assay can be described thus: SPR, IgG captured, CD47 in flow; exp 2; estimated, out of instrument limit.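 Also: IgG from HEK293 cell supernatants tested by SPR on a BIAcore T200, C33G mutein prevents IgV homodimers for monovalent affinity, KD derived from association and dissociation rates.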
The target in assay [5] is T3, human CD47 on cells (SHP-77 tumor …). Kind of assay: flow cytometry on human RBCs.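 Also: antibody binding measured by flow cytometry as geometric mean fluorescence intensity over a range of antibody concentrations, with EC50 and maximum taken from a sigmoidal dose-response fit.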
For assay [6] the target is unchanged. The assay can be described thus: cell-based or functional assay.
Assay [7] has as its target T4, cynomolgus CD47 on CHO-K1 stable cell line (cynomolgus, UniProt A0A5F8AK49 19-323 (rhesus entry)).
T4 construct: whole, on cells; also called cynomolgus CD47/CHO-K1
Kind of assay: flow cytometry on cynomolgus CD47 CHO-K1 cells; plateau not reached, not accurate. Background: A flow cytometer gives signals particle by particle.

Assay [8] deals with T1, wild type human CD47 (Acro Biosystems, …). The assay can be described thus: SPR, IgG captured, CD47 in flow; exp 4.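 Also: rates fitted from SPR association and dissociation curves, KD estimated from them, the other target is a CD47 C33G mutein, used to obtain true monovalent affinity.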
For assay [9], the target named is T2, Human CD47-C33G. Kind of assay: SPR, IgG captured, CD47 in flow; exp 4.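 Also: rates fitted from SPR association and dissociation curves, KD estimated from them, the other target is a CD47 C33G mutein, used to obtain true monovalent affinity.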
Assay [10] concerns the target T3, human CD47 on cells (SHP-77 tumor …). The assay can be described thus: flow cytometry on human CD47 CHO-K1 cells; plateau not reached, not accurate.

B1: 108VH5.M11 / 108VL1.M5 (antibody, human IgG4 S228P, kappa, V domains shown)
VH: EVQLVQSGAEVKKPGASVKVSCKASGYTFTHHYIHWVRQAPGQGLEWMGMIDASDSETRYAQKFQGRVTMTRDTSTSTVYMELSSLRSEDTAVYYCARLGRYYFDYWGQGTLVTVSS
VL: EIVLTQSPATLSLSPGERATLSCRASQSVSSYLAWYQQKPGQAPRLLIYGASNRATGIPARFSGSGSGTDFTLTISSLEPEDFAVYYCGESYGHLYTFGGGTKVEIKR
notes: Full-length IgG4 (S228P), kappa; also called VH5.M11 VL1.M5
In the case of B1, in [1], the dissociation constant Kd (usually a measure of binding affinity in units of concentration) was found to be 12 nM; the off-rate constant (koff) (commonly the first-order rate constant of dissociation) came out at 0.0032 s⁻¹; the kon (as a rule, the rate constant with which the complex forms) was 260000 M⁻¹ s⁻¹. For the same molecule, in assay [2], the kon was determined as 190000 M⁻¹ s⁻¹. Moreover, in assay [3], it took 797 nM to reach a half-maximal effect (EC50) and the “Fitted Maximal MFI” value is 4000 MFI. Besides, in assay [4], the dissociation constant Kd was over 530 nM and the koff is over 0.1 s⁻¹. In [5], a half-maximal response (EC50) required 178 nM and the “Fitted Maximal MFI” value came to 1540 MFI.

B2: 108VH5.M15 / 108VL1.M5 (antibody, human IgG4 S228P, kappa, V domains shown)
VH: EVQLVQSGAEVKKPGASVKVSCKASGYTFTHHWIHWVRQAPGQGLEWMGMIDASDSSTRYAQKFQGRVTMTRDTSTSTVYMELSSLRSEDTAVYYCARLGRYYFDYWGQGTLVTVSS
VL: EIVLTQSPATLSLSPGERATLSCRASQSVSSYLAWYQQKPGQAPRLLIYGASNRATGIPARFSGSGSGTDFTLTISSLEPEDFAVYYCGESYGHLYTFGGGTKVEIKR
notes: Full-length IgG4 (S228P), kappa; also called VH5.M15 VL1.M5
On to B2, for which the Kd was 22 nM in [1] and over 630 nM in assay [4]. Further, the koff in assay [1] is 0.0048 s⁻¹; in [4], over 0.1 s⁻¹. In addition, the kon in [1] is 220000 M⁻¹ s⁻¹; in assay [2], 160000 M⁻¹ s⁻¹. The figures for the half-maximal effective concentration (EC50) in [3] and in assay [5] were 396 nM and 155 nM, respectively. Besides, the results for the “Fitted Maximal MFI” value in assay [3] and in [5] were 3680 MFI and 926 MFI, respectively.

B3: 108VH10.Mr / 108VL10.Me (antibody, V domains shown)
VH: EVQLVESGGGLVQPGGSLRLSCAASGFTFSHHWIHWVRQAPGKGLEWVAMIDASDSETRLVDSVKGRFTISADTSKNTAYLQMNSLRAEDTAVYYCSRLGRYYFDYWGQGTLVTVSS
VL: DIQMTQSPSSLSASVGDRVTITCRASQSISSYLNWYQQKPGKAPKLLIYGASSRYSGVPSRFSGSRSGTDFTLTISSLQPEDFATYYCGESYGHLYTFGQGTKVEIK
notes: 4D5-framework series; constant regions not restated for this series; also called VH10.Mr VL10.Me
Turning to B3, in assay [6], the “CCRF-CEM phagocytosis EC50” value was found to be 0.43 nM and the “CCRF-CEM phagocytosis, Phagocytosis (%)” value was 49.8%. Moreover, the EC50 (commonly the concentration at which the effect is half-maximal) in assay [7] was 49.9 nM. In addition, in assay [8], the Kd came to 8.8 nM, the koff was 0.0031 s⁻¹ and the kon came out at 360000 M⁻¹ s⁻¹. Moreover, in assay [9], the Kd came to 160 nM, the koff amounted to 0.025 s⁻¹ and the kon stood at 150000 M⁻¹ s⁻¹. Also, in [3], the EC50 stood at 14.4 nM and the “Fitted Maximal MFI” value turned out to be 25400 MFI. For the same molecule, in assay [10], a half-maximal response (EC50) required 15.7 nM. Besides, in assay [5], the concentration for a half-maximal effect (EC50) is 8.1 nM and the “Fitted Maximal MFI” value came to 15700 MFI.

B4: 108VH10.Mq / 108VL10.Me (antibody, V domains shown)
VH: EVQLVESGGGLVQPGGSLRLSCAASGFTFSHHWIHWVRQAPGKGLEWVAMIDASDSETRLSDSVKGRFTISADTSKNTAYLQMNSLRAEDTAVYYCSRLGRYYFDYWGQGTLVTVSS
VL: DIQMTQSPSSLSASVGDRVTITCRASQSISSYLNWYQQKPGKAPKLLIYGASSRYSGVPSRFSGSRSGTDFTLTISSLQPEDFATYYCGESYGHLYTFGQGTKVEIK
notes: 4D5-framework series; constant regions not restated for this series; also called VH10.Mq VL10.Me
With B4, in assay [6], the “CCRF-CEM phagocytosis EC50 (nM); plateau not reached” value was determined as 2.3 nM. Further, the EC50 in assay [7] was 8.4 nM; in assay [3] it was 8 nM; in assay [10], 6.4 nM; in [5] it was 3.9 nM. The Kd in assay [8] came to 7.5 nM; in assay [9], 120 nM. Further, the off-rate constant (koff) in [8] came out at 0.0045 s⁻¹; in assay [9], 0.024 s⁻¹. Besides, the on-rate (kon) stood at 600000 M⁻¹ s⁻¹ in assay [8] and 190000 M⁻¹ s⁻¹ in assay [9]. The “Fitted Maximal MFI” value in assay [3] was 27400 MFI; in assay [5] it was 19400 MFI.

(Values after patent US20260132197A1 (NANJING LEGEND BIOTECH, published 2026).)
